Laboratory results: patent publication US20120064090A1, “THERAPEUTIC AGENT FOR CANCER HAVING REDUCED SENSITIVITY TO MOLECULAR TARGET DRUG AND PHARMACEUTICAL COMPOSITION FOR ENHANCING SENSITIVITY TO MOLECULAR TARGET DRUG” (KRINGLE PHARMA INC., priority 2009, published 2012)

How the values were obtained:
PC-9 = experiment: Effects of SU11274 on PC-9 with HGF-induced gefitinib-resistance; type: cell-based, human; details: HGF 20 ng/mL, gefitinib 0.3 μM, antibody 1 μg/mL, NK4 0.3 μM, SU11274 0.3 μM, 72 hours, FIG. 11
Procedure: PC-9 was seeded at 2×10^3 cells/well on 96-well plates and cultured for 24 hours. […] After that, 50 μL of an MTT solution (2 mg/mL, manufactured by Sigma) was added and incubation was performed at 37° C. for 2 hours. The culture media were removed, and dark blue crystals were dissolved by adding 100 μL of DMSO. The absorbance was measured with a microplate reader MTP-120 (Corona Electric Co., Ltd.) at the detection and reference wavelengths of 550 nm and 630 nm, respectively. The growth rate was shown as a relative value based on an untreated control. Each experiment was performed in triplicate and repeated thrice independently.

[1] = test system: tumor formed of PC-9 and MRC-5 cells; experiment: Xenograft tumor (PC-9 + MRC-5) transplanted into SCID mice; type: in vivo; details: PC-9 + MRC-5 s.c., days 4 to 16, gefitinib 25 mg/kg/day oral, antibody 5 mg/kg/day i.p., NK4 9 mg/kg/day i.p., FIG. 6
Procedure: SCID mice (female, 5 weeks old) were purchased from CLEA Japan.
100 μL of a cell suspension containing PC-9 (5×10^6 cells) and MRC-5 (5×10^6 cells) was subcutaneously inoculated from the back skin of each SCID mouse. Four days later, mice bearing a tumor exceeding 4 mm in diameter were randomly divided into 6 groups (5 mice per group) as shown in Table 1.
In gefitinib-treated groups (groups 4, 5 and 6 in Table 1), gefitinib (25 mg/kg/day) was orally administered once daily in the morning for 13 days from 4 days to 16 days after cell inoculation. In gefitinib-non-treated groups (groups 1, 2 and 3 in Table 1), a water containing 1% Tween80 was orally administered once daily in a similar manner to the above. In anti-HGF neutralizing antibody-treated groups (groups 2 and 5 in Table 1), the anti-HGF neutralizing antibody (5 mg/kg/day) was intraperitoneally administered once daily immediately after gefitinib administration for 13 days from 4 days to 16 days after cell inoculation. In NK4-treated groups (groups 3 and 6 in Table 1), NK4 (9 mg/kg/day) was intraperitoneally administered in divided portions twice a day in the morning immediately after gefitinib administration and in the evening for 13 days from 4 days to 16 days after cell inoculation.
The width and length of tumor were measured every other day, and the tumor area (width×length) was calculated. […]

H1975 [2] = experiment: Effects of SU11274 on H1975 with HGF-induced CL-387,785-resistance; type: cell-based, human; details: CL-387,785 0.3 μM, HGF 50 ng/mL, antibody 2 μg/mL, NK4 0.3 μM, 72 hours, FIG. 12
Procedure: H1975 was seeded at 2×10^3 cells/well on 96-well plates and cultured for 24 hours. […] The degree of cell growth was measured by the MTT method and the growth rate was calculated in the same manner as in the above (a).

H1975 [3] = experiment: Effects of anti-human HGF neutralizing antibody or NK4 on H1975 with HGF-induced CL-387,785-resistance; type: cell-based; details: CL-387,785 0.3 μM, HGF 50 ng/mL, antibody 2 μg/mL, NK4 0.3 μM, 72 hours, FIG. 10
Procedure: In the same manner as in the above (a), H1975 was seeded at 2×10^3 cells/well on 96-well plates. […] The degree of cell growth was measured by the MTT method and the growth rate was calculated in the same manner as in the above (a).

B1: NK4 (protein, listed as Homo sapiens)
chain 1: MWVTKLLPALLLQHVLLHLLLLPIAIPYAEGQRKRRNTIHEFKKSAKTTLIKIDPALKIKTKKVNTADQCANRCTRNKGLPFTCKAFVFDKARKQCLWFPFNSMSSGVKKEFGHEFDLYENKDYIRNCIIGKGRSYKGTVSITKSGIKCQPWSSMIPHEHSFLPSSYRGKDLQENYCRNPRGEEGGPWCFTSNPEVRYEVCDIPQCSEVECMTCNGESYRGLMDHTESGKICQRWDHQTPHRHKFLPERYPDKGFDDNYCRNPDGQPRPWCYTLDPHTRWEYCAIKTCADNTMNDTDVPLETTECIQGQGEGYRGTVNTIWNGIPCQRWDSQYPHEHDMTPENFKCKDLRENYCRNPDGSESPWCFTTDPNIRVGYCSQIPNCDMSHGQDCYRGNGKNYMGNLSQTRSGLTCSMWDKNMEDLHRHIFWEPDASKLNENYCRNPDDDAHGPWCYTGNPLIPWDYCPISRCEGDTTPTIV
chain 2: MWVTKLLPALLLQHVLLHLLLLPIAIPYAEGQRKRRNTIHEFKKSAKTTLIKIDPALKIKTKKVNTADQCANRCTRNKGLPFTCKAFVFDKARKQCLWFPFNSMSSGVKKEFGHEFDLYENKDYIRNCIIGKGRSYKGTVSITKSGIKCQPWSSMIPHEHSYRGKDLQENYCRNPRGEEGGPWCFTSNPEVRYEVCDIPQCSEVECMTCNGESYRGLMDHTESGKICQRWDHQTPHRHKFLPERYPDKGFDDNYCRNPDGQPRPWCYTLDPHTRWEYCAIKTCADNTMNDTDVPLETTECIQGQGEGYRGTVNTIWNGIPCQRWDSQYPHEHDMTPENFKCKDLRENYCRNPDGSESPWCFTTDPNIRVGYCSQIPNCDMSHGQDCYRGNGKNYMGNLSQTRSGLTCSMWDKNMEDLHRHIFWEPDASKLNENYCRNPDDDAHGPWCYTGNPLIPWDYCPISRCEGDTTPTIV
notes: recombinant human NK4 protein; N-terminal hairpin domain and four kringle domains of HGF α chain, antagonist of HGF
B1 was tested, and the “inhibition of HGF-induced hyposensitivity of PC-9 to gefitinib” value (PC-9) was “significantly inhibited”, the “tumor volume / tumor growth over time” value [1] was “tumor growth rate was slightly reduced” and the “inhibition of HGF-induced hyposensitivity of H1975 to CL-387,785” value (H1975 [2]) was “significantly inhibited”. The “inhibition of HGF-induced hyposensitivity of H1975 to CL-387,785” value (H1975 [3]) was “inhibited the HGF-induced hyposensitivity”.
